Measurements reported in patent publication US20250188176A1 (INVETX, published 2025).

Target: T1, Extracellular domain (ECD) of the canine IL-4 receptor alpha-V5 epitope-AviTag-His Tag (canine)
T1 construct: monomeric form isolated by size exclusion; also called canine IL-4RA-V5-Avi-His; canine IL-4RA
T1 chain: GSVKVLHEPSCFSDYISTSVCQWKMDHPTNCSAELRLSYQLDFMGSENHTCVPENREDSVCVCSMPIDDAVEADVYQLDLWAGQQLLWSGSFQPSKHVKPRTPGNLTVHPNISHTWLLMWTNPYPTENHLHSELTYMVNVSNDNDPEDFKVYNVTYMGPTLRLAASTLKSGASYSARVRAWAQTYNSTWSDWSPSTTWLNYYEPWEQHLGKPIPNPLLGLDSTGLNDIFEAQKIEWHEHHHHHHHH
Assay: SPR, Fab-SASA captured on BSA;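 also: biacore T200 SPR, Fab-SASA variants from E. coli conditioned medium captured on BSA-coated CM5 chip, canine IL-4RA injected 120 s then 420 s dissociation, 1:1 model fit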
Experimental: Forty-four PML clones were selected from each library for expression in E. coli in 96 deep-well plates by inoculating into 2YT medium and inducing with 0.2 mM IPTG overnight at room temperature. The Fab secreted in the medium was analyzed for binding activity by completing an ELISA. […] The 39 unique clones were confirmed by an off-rate screening assay in an SPR assay performed on a Biacore T200. For the SPR analyses, bovine serum albumin (BSA) was immobilized to CM5 sensor chip. The sensor chip surface was activated with 50 mmol/L H-Hydroxysuccinimide and 200 mmol/L 1-ethyl-3-(3-dimethylaminopropyl) carbodiimide hydrochloride for 420 s. Afterwards, BSA diluted in 10 mM sodium acetate, pH 4.5 was injected. After the amine coupling reaction, the remaining active coupling sites on the chip surface were blocked with 1 mM ethanolamine hydrochloride. The selected Fab-SASA variants in conditioned medium were captured on the BSA-coated chips. The running buffer was HBS-EP (10 mM HEPES 500 mM NaCl, 3 mM EDTA, 0.05% Tween 20, pH 7.4). After equilibration, canine IL-4RA was injected for 120 seconds (association phase) followed by the injection of running buffer for 420 sec (dissociation phase). The off-rates of the Fab-SASA clones were obtained from fitting the experimental data locally to a 1:1 interaction model using the Biacore T200 evaluation software.

B1: TB640_005 Fab-SASA VH-K103I (Fab, V domains shown)
VH: EVQLVESGGDLVKPGGSLRLSCVASGFTFRDYAMTWVRQAPGKGLQWVSLISGSGGKTYYADAVKGRFTISRDNAKNTLYLQMNSLRAEDTAVYYCAVDRLTITIRPQYYGLWVWGQGTLVTVSS
VL: DIVMTQTPLSLSVSPGETASISCRSSQSLLYSIGYNYLDWYLQKPGQSPQGLIYLGSKRASGVPDRFSGSGSGTDFTLRISRVEANDTGVYYCMQGLQSPLTFGQGTKLEIKR
notes: not shown: SASA tag then His-tag
- Kd: 18.6 nM
- Ratio WT-kd/clone-kd: 0.99
- koff: 0.000967 s⁻¹
- kon: 51900 M⁻¹ s⁻¹

B2: TB640_005 Fab-SASA VH-V114H (Fab, V domains shown)
VH: EVQLVESGGDLVKPGGSLRLSCVASGFTFRDYAMTWVRQAPGKGLQWVSLISGSGGKTYYADAVKGRFTISRDNAKNTLYLQMNSLRAEDTAVYYCAVDRLTKTIRPQYYGLWHWGQGTLVTVSS
VL: DIVMTQTPLSLSVSPGETASISCRSSQSLLYSIGYNYLDWYLQKPGQSPQGLIYLGSKRASGVPDRFSGSGSGTDFTLRISRVEANDTGVYYCMQGLQSPLTFGQGTKLEIKR
notes: as for B1
- Kd: 5.47 nM
- Ratio WT-kd/clone-kd: 1.62
- koff: 0.000589 s⁻¹
- kon: 108000 M⁻¹ s⁻¹

B3: TB640_005 Fab-SASA VH-V114K (Fab, V domains shown)
VH: EVQLVESGGDLVKPGGSLRLSCVASGFTFRDYAMTWVRQAPGKGLQWVSLISGSGGKTYYADAVKGRFTISRDNAKNTLYLQMNSLRAEDTAVYYCAVDRLTKTIRPQYYGLWKWGQGTLVTVSS
VL: DIVMTQTPLSLSVSPGETASISCRSSQSLLYSIGYNYLDWYLQKPGQSPQGLIYLGSKRASGVPDRFSGSGSGTDFTLRISRVEANDTGVYYCMQGLQSPLTFGQGTKLEIKR
notes: as for B1
- Kd: 5.97 nM
- Ratio WT-kd/clone-kd: 1.33
- koff: 0.000717 s⁻¹
- kon: 120000 M⁻¹ s⁻¹

B4: TB640_005 Fab-SASA VH-L50M (Fab, V domains shown)
VH: EVQLVESGGDLVKPGGSLRLSCVASGFTFRDYAMTWVRQAPGKGLQWVSMISGSGGKTYYADAVKGRFTISRDNAKNTLYLQMNSLRAEDTAVYYCAVDRLTKTIRPQYYGLWVWGQGTLVTVSS
VL: DIVMTQTPLSLSVSPGETASISCRSSQSLLYSIGYNYLDWYLQKPGQSPQGLIYLGSKRASGVPDRFSGSGSGTDFTLRISRVEANDTGVYYCMQGLQSPLTFGQGTKLEIKR
notes: as for B1
- Kd: 8.5 nM
- Ratio WT-kd/clone-kd: 0.79
- koff: 0.0012 s⁻¹
- kon: 141000 M⁻¹ s⁻¹

B5: TB640_005 Fab-SASA VH-L50F (Fab, V domains shown)
VH: EVQLVESGGDLVKPGGSLRLSCVASGFTFRDYAMTWVRQAPGKGLQWVSFISGSGGKTYYADAVKGRFTISRDNAKNTLYLQMNSLRAEDTAVYYCAVDRLTKTIRPQYYGLWVWGQGTLVTVSS
VL: DIVMTQTPLSLSVSPGETASISCRSSQSLLYSIGYNYLDWYLQKPGQSPQGLIYLGSKRASGVPDRFSGSGSGTDFTLRISRVEANDTGVYYCMQGLQSPLTFGQGTKLEIKR
notes: as for B1
- Kd: 15 nM
- Ratio WT-kd/clone-kd: 0.49
- koff: 0.00193 s⁻¹
- kon: 128000 M⁻¹ s⁻¹

B6: TB640_005 Fab-SASA VH-L101K (Fab, V domains shown)
VH: EVQLVESGGDLVKPGGSLRLSCVASGFTFRDYAMTWVRQAPGKGLQWVSLISGSGGKTYYADAVKGRFTISRDNAKNTLYLQMNSLRAEDTAVYYCAVDRKTKTIRPQYYGLWVWGQGTLVTVSS
VL: DIVMTQTPLSLSVSPGETASISCRSSQSLLYSIGYNYLDWYLQKPGQSPQGLIYLGSKRASGVPDRFSGSGSGTDFTLRISRVEANDTGVYYCMQGLQSPLTFGQGTKLEIKR
notes: as for B1
- Kd: 7.1 nM
- Ratio WT-kd/clone-kd: 1.53
- koff: 0.000623 s⁻¹
- kon: 87800 M⁻¹ s⁻¹

B7: TB640_005 Fab-SASA VH-T28N (Fab, V domains shown)
VH: EVQLVESGGDLVKPGGSLRLSCVASGFNFRDYAMTWVRQAPGKGLQWVSLISGSGGKTYYADAVKGRFTISRDNAKNTLYLQMNSLRAEDTAVYYCAVDRLTKTIRPQYYGLWVWGQGTLVTVSS
VL: DIVMTQTPLSLSVSPGETASISCRSSQSLLYSIGYNYLDWYLQKPGQSPQGLIYLGSKRASGVPDRFSGSGSGTDFTLRISRVEANDTGVYYCMQGLQSPLTFGQGTKLEIKR
notes: as for B1
- Kd: 11.3 nM
- Ratio WT-kd/clone-kd: 1.22
- koff: 0.00078 s⁻¹
- kon: 69200 M⁻¹ s⁻¹

B8: TB640_005 Fab-SASA VH-V114G (Fab, V domains shown)
VH: EVQLVESGGDLVKPGGSLRLSCVASGFTFRDYAMTWVRQAPGKGLQWVSLISGSGGKTYYADAVKGRFTISRDNAKNTLYLQMNSLRAEDTAVYYCAVDRLTKTIRPQYYGLWGWGQGTLVTVSS
VL: DIVMTQTPLSLSVSPGETASISCRSSQSLLYSIGYNYLDWYLQKPGQSPQGLIYLGSKRASGVPDRFSGSGSGTDFTLRISRVEANDTGVYYCMQGLQSPLTFGQGTKLEIKR
notes: as for B1
- Kd: 3.5 nM
- Ratio WT-kd/clone-kd: 1.47
- koff: 0.000647 s⁻¹
- kon: 185000 M⁻¹ s⁻¹

B9: TB640_005 Fab-SASA VH-T28P (Fab, V domains shown)
VH: EVQLVESGGDLVKPGGSLRLSCVASGFPFRDYAMTWVRQAPGKGLQWVSLISGSGGKTYYADAVKGRFTISRDNAKNTLYLQMNSLRAEDTAVYYCAVDRLTKTIRPQYYGLWVWGQGTLVTVSS
VL: DIVMTQTPLSLSVSPGETASISCRSSQSLLYSIGYNYLDWYLQKPGQSPQGLIYLGSKRASGVPDRFSGSGSGTDFTLRISRVEANDTGVYYCMQGLQSPLTFGQGTKLEIKR
notes: as for B1
- Kd: 8.95 nM
- Ratio WT-kd/clone-kd: 1.21
- koff: 0.000786 s⁻¹
- kon: 87800 M⁻¹ s⁻¹

B10: TB640_005 Fab-SASA VH-L101M (Fab, V domains shown)
VH: EVQLVESGGDLVKPGGSLRLSCVASGFTFRDYAMTWVRQAPGKGLQWVSLISGSGGKTYYADAVKGRFTISRDNAKNTLYLQMNSLRAEDTAVYYCAVDRMTKTIRPQYYGLWVWGQGTLVTVSS
VL: DIVMTQTPLSLSVSPGETASISCRSSQSLLYSIGYNYLDWYLQKPGQSPQGLIYLGSKRASGVPDRFSGSGSGTDFTLRISRVEANDTGVYYCMQGLQSPLTFGQGTKLEIKR
notes: as for B1
- Kd: 7.73 nM
- Ratio WT-kd/clone-kd: 1.34
- koff: 0.000713 s⁻¹
- kon: 92300 M⁻¹ s⁻¹

B11: TB640_005 Fab-SASA VH-K103R (Fab, V domains shown)
VH: EVQLVESGGDLVKPGGSLRLSCVASGFTFRDYAMTWVRQAPGKGLQWVSLISGSGGKTYYADAVKGRFTISRDNAKNTLYLQMNSLRAEDTAVYYCAVDRLTRTIRPQYYGLWVWGQGTLVTVSS
VL: DIVMTQTPLSLSVSPGETASISCRSSQSLLYSIGYNYLDWYLQKPGQSPQGLIYLGSKRASGVPDRFSGSGSGTDFTLRISRVEANDTGVYYCMQGLQSPLTFGQGTKLEIKR
notes: as for B1
- Kd: 7.13 nM
- Ratio WT-kd/clone-kd: 1.5
- koff: 0.000636 s⁻¹
- kon: 89200 M⁻¹ s⁻¹

B12: TB640_005 Fab-SASA VH-L112M (Fab, V domains shown)
VH: EVQLVESGGDLVKPGGSLRLSCVASGFTFRDYAMTWVRQAPGKGLQWVSLISGSGGKTYYADAVKGRFTISRDNAKNTLYLQMNSLRAEDTAVYYCAVDRLTKTIRPQYYGMWVWGQGTLVTVSS
VL: DIVMTQTPLSLSVSPGETASISCRSSQSLLYSIGYNYLDWYLQKPGQSPQGLIYLGSKRASGVPDRFSGSGSGTDFTLRISRVEANDTGVYYCMQGLQSPLTFGQGTKLEIKR
notes: as for B1
- Kd: 13.7 nM
- Ratio WT-kd/clone-kd: 1.97
- koff: 0.000483 s⁻¹
- kon: 35300 M⁻¹ s⁻¹

B13: TB640_005 Fab-SASA VH-S52N (Fab, V domains shown)
VH: EVQLVESGGDLVKPGGSLRLSCVASGFTFRDYAMTWVRQAPGKGLQWVSLINGSGGKTYYADAVKGRFTISRDNAKNTLYLQMNSLRAEDTAVYYCAVDRLTKTIRPQYYGLWVWGQGTLVTVSS
VL: DIVMTQTPLSLSVSPGETASISCRSSQSLLYSIGYNYLDWYLQKPGQSPQGLIYLGSKRASGVPDRFSGSGSGTDFTLRISRVEANDTGVYYCMQGLQSPLTFGQGTKLEIKR
notes: as for B1
- Kd: 1.83 nM
- Ratio WT-kd/clone-kd: 7.88
- koff: 0.000112 s⁻¹
- kon: 66200 M⁻¹ s⁻¹
